In paper PMC7935256 (PLoS Pathogens, 2021) one finds Kd data, which are given here for 1 molecule.

What all share (assay): BLI
Holding throughout (settings): both partners purified

In assay [1] the target is DENV2 NGC strain recombinant E protein ectodomain (residues 1-394) (dengue virus serotype 2, strain NGC).
Assay [2] deals with T1, DENV1 WestPac74 strain recombinant E protein ectodomain (residues 1-394) (dengue virus serotype 1, strain WestPac …).
T1 construct: also called DENV1 WestPac 74 rE protein; Western Pacific 1974

Assay [3] deals with T2, DENV2 PVP94/07 strain recombinant E protein ectodomain (residues 1-394) (dengue virus serotype 2, strain PVP94/07).
T2 construct: also called DENV2 PVP94/07 rE protein

B1: human monoclonal antibody (HMAb) 1C19, IgG (antibody, V domains shown)
VH: QVQLVESGGGVVQPGRSLRLSCAASGFIFSNYGMHWVRQAPGKGLEWVAVISYDGSDKRYADSVRGRFTISRDNSKNTLFLQVTSLRAEDTAVYYCAKELSGYDPGFEYWGQGTPVTVSS
VL: DIQMTQSPSTLSASVGDRVTITCRASQSINTWLAWYQQKPGKAPKLLIYKASSLESGVPSRFSGSGSGTEFTLTISSLQPDDFATYYCQQYESYATFGQGTKVDIK
notes: also called IgG 1C19
In general, Kd refers to the equilibrium constant for the complex coming apart. B1: the Kd worked out at 4.55 nM in assay [1], 0.844 nM in assay [2] and 19 nM in assay [3].
